Experimental data taken from patent US20130137856A1, “PROTEIN BINDING DOMAINS STABILIZING FUNCTIONAL CONFORMATIONAL STATES OF GPCRS AND USES THEREOF” (priority 2010, published 2013).
“Also recorded” adds a separate entry of the source.

Key:
β2AR [1] = molecular target: T1, β2AR (Homo sapiens, UniProt P07550); assay: Fluorescent (CPM) thermal stability assay of detergent-solubilized β2AR
Protocol: (§1) The effect of conformational selective nanobodies on the thermostability and the subsequent aggregation of the β2AR receptor was analyzed using a fluorescent thermal stability assay (FIG. 13) and size exclusion chromatography (FIG. 14).
The fluorescent thermal stability assay makes use of the thiol-specific fluorochrome N-[4-(7-diethylamino-4-methyl-3-coumarinyl)phenyl]maleimide (CPM) to measure the chemical reactivity of the native cysteines embedded in the protein interior as a sensor for the overall integrity of the folder state of membrane proteins (Alexandrov et al. 2008). For the fluorescent thermal stability assay, detergent-solubilized receptor (in 0.1% dodecylmaltoside, 100 mM NaCl and 20 mM Hepes pH 7.5) was pre-incubated with isoproterenol (10 μM) in the presence or absence of a 2:1 molar excess of Nb80 for one hour at RT. Samples were then mixed with CPM fluorophore and incubated for two minutes at temperatures ranging from 10° C. to 94° C. and fluorescence emission was collected. […] Unfolding transitions could be described by a simple two-state model, including the native (folded) and the denaturated state, representing the lower and upper plateaus of the melting curves.

β2AR-T4L = assay: [3H]-DHA competition binding on β2AR-T4L reconstituted in HDL particles; parameters: species or system human
β2AR [2] = molecular target: T1, β2AR; assay: Competition radioligand binding on commercial insect cell membranes with full-length human β2AR, Nb80 versus irrelevant Nb; details: radioligand displacement with Nb80 versus irrelevant Nanobody
[3] = Effect of Nb80 on ligand affinity of an unrelated receptor; format: binding; details: data not shown
β2AR [4] = molecular target: T1, β2AR; assay: [3H]-DHA competition binding on Sf9 insect cell membranes expressing β2AR, with or without nanobody; parameters: recombinant β2AR truncated at Gly365 (β2AR-365); made in house; host or cells: Sf9 insect cells (membranes); details: agonist competition binding with versus without nanobody
From the text: Panel b: Dose-response competition binding experiments on Sf9 insect cell membranes expressing β2AR.

β2AR [5] = molecular target: T1, β2AR; assay: [3H]-DHA competition binding on β2AR reconstituted in HDL particles; parameters: recombinant β2AR truncated at Gly365 (β2AR-365); made in house; host or cells: Sf9 insect cells (membranes)
β2AR [6] = assay: Size exclusion chromatography of nanobody with purified detergent-solubilized β2AR; format: binding, human; details: 20 μM β2AR bound to an agonist, 40 μM nanobody
Protocol: The mixture was then analyzed by Size Exclusion Chromatography (SEC), which separates protein on the basis of size. Seven of the nanobodies bound to purified β2AR and migrated as a complex on SEC only in the presence of agonist and not an inverse agonist (an example is shown in FIG. 1, Panel a, FIG. 3 and FIG. 4).
Agonist selective nanobodies were identified by size exclusion chromatography following incubation of 20 μM agonist or inverse agonist- (carazolol-) bound β2AR-365N for one hour at RT in the absence or presence of 40 μM nanobody.

human β1AR = human β1AR (Homo sapiens, UniProt P08588); assay: [3H]-DHA competition binding on β1AR with and without Nb80
Sequence of human β1AR (P08588 whole entry): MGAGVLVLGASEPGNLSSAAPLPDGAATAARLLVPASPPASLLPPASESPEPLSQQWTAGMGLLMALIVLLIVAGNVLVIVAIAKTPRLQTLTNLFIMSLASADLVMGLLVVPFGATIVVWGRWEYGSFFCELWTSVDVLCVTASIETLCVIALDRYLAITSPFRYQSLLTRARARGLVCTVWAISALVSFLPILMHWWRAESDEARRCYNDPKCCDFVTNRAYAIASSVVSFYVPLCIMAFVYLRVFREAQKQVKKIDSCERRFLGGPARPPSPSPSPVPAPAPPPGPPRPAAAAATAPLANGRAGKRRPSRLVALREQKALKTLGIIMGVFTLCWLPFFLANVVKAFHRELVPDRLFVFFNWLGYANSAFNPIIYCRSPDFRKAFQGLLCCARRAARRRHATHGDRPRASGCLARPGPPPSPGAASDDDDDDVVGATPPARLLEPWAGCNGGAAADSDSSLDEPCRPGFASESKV
From the text: Active state stabilizing Nanobodies that are cross-reactive to related receptors can be used as a tool to stabilize a conformational state of those related receptors. […] Using the PISA server (Krissinel & Henrick, 2007) and based on the crystal structure of the Nb80-β2AR complex, 30 β2AR AA residues were identified to interact with Nb80 in the β2AR-Nb80 interface. […] The remaining interface residues are lysines in β2AR and have been substituted by arginines in β1AR corresponding to conserved substitutions (shown in grey boxes in FIG. 17). It thus appears that both receptors share a very similar binding site for Nb80. Based on this analysis, we also measured the effect of Nb80 on the affinity of […] for the agonist isoproterenol and the inverse agonist CGP20712A (FIG. 18).

β2AR [7] = molecular target: T1, β2AR; assay: Temperature-induced aggregation of β2AR analyzed by SEC; details: DDM-solubilized β2AR, 10 μM isoproterenol, 2:1 molar excess of Nb80, 10 minutes at increasing temperatures
Protocol: as §1
We also analyzed the effect of Nb80 on the thermal unfolding and aggregation of the agonist-bound receptor by size exclusion chromatography (SEC). For this experiment, dodecylmaltoside-solubilized receptor was pre-incubated with isoproterenol (10 μM) in the presence or absence of a 2:1 molar excess of Nb80 for 45 minutes at RT. Samples were next incubated for 10 minutes at increasing temperatures and subsequently analyzed by SEC (FIG. 14).

β2AR [8] = molecular target: T1, β2AR; assay: Bimane fluorescence spectroscopy on mBB-β2AR reconstituted in HDL particles; details: Nb80 with 10 μM isoproterenol
β2AR [9] = molecular target: T1, β2AR; assay: Monobromobimane (mBBr) fluorescence of labeled purified β2AR; format: biochemical
From the text: To investigate the effect of nanobodies on movement of the cytoplasmic domain of TM6 we labeled purified β2AR at C265 with monobromobimane (mBB-β2AR). […] In mBB-β2AR, the addition of agonist together with G protein results in larger fluorescent changes than either agonist or G protein alone. This is compatible with the cooperative interactions observed in agonist competition binding assays (Yao et al. 2009).
Purified β2AR was reacted with 1:1 equivalent of monobromobimane (mBBr, Invitrogen) in 100 mM NaCl, 20 mM HEPES, pH 7.5, 0.1% dodecyl maltoside and incubated overnight on ice in the dark. The fluorophore-labeled receptor was purified right before use by gel filtration on a desalting column equilibrated with the same buffer. […] All experiments were performed at 25° C. […] To determine the effect of nanobodies and ligands, three individual labeled protein samples were incubated with 1 μM nanobody or 10 μM Isoproterenol or both. Emission spectra of the samples were taken after 1 hour incubation.

B1: NB80: β2AR-specific nanobody, SEQ ID NO:4; lead nanobody stabilizing the active state (protein, listed as Lama glama)
VHH: QVQLQESGGGLVQAGGSLRLSCAASGSIFSINTMGWYRQAPGKQRELVAAIHSGGSTNYANSVKGRFTISRDNAANTVYLQMNSLKPEDTAVYYCNVKDYGAVLYEYDYWGQGTQVTVSS
β2AR [1]; DDM-solubilized, isoproterenol-bound β2AR, 2:1 molar excess of Nb80
  Apparent melting temperature for β2AR with Nb80: 24 °C
β2AR [1]; isoproterenol (10 μM)-bound β2AR with versus without Nb80
  Increase of the melting temperature (Tm) of the agonist-bound receptor: 12 °C
β2AR-T4L; β2AR-T4L/HDL with Nb80 versus without
  Increase of isoproterenol affinity in the presence of Nb80: 60 fold
β2AR-T4L; β2AR-T4L/HDL, ICI-118,551 competing against [3H]-DHA
  Effect of Nb80 on affinity for the inverse agonist ICI-118,551: does not increase the affinity
β2AR [2]
  Effect of Nb80 on β2AR affinity for agonists and antagonists: increases β2AR affinity for agonists but not for antagonists
[3]
  Effect of Nb80 on unrelated receptors: No such effect
β2AR [4]
  Enhancement of β2AR affinity for the agonist isoproterenol in the presence of the nanobody: two- to thirty-fold
β2AR [5]; β2AR/HDL with Nb80 versus without
  Increase of isoproterenol affinity in the presence of Nb80: 95 fold
β2AR [5]; β2AR/HDL, ICI-118,551 competing against [3H]-DHA
  Effect of Nb80 on affinity for the inverse agonist ICI-118,551: does not increase the affinity; also recorded: little effect
β2AR [6]
  Complex formation with agonist-bound β2AR on SEC: β2AR-agonist-Nb80 complex formation
Human β1AR
  Conformational selectivity of Nb80 binding to human β1AR: selectively binds the active conformation
Human β1AR; [3H]-DHA competition
  Effect of Nb80 on affinity of the agonist isoproterenol for β1AR: increased affinity
  Effect of Nb80 on β1AR affinity for CGP20712A: does not change the affinity
β2AR [7]
  Effect on temperature-induced aggregation of the agonist-bound receptor: protects the agonist-bound receptor against temperature-induced aggregation
β2AR [8]
  Effect on bimane fluorescence in the presence of isoproterenol: increased
β2AR [9]; 1 μM nanobody plus full agonist isoproterenol
  mBBr fluorescence change of isoproterenol-bound β2AR with nanobody (active state): larger changes were observed when both agonist and nanobody were added together; also recorded: stabilizes a more active state
β2AR [9]; Nb80 alone, no agonist
  mBBr fluorescence change of β2AR with nanobody alone: relatively small changes in fluorescence
